Experimental data from paper PMC5818509, “Crystal structure of the hydroxylaminopurine resistance protein, YiiM, and its putative molybdenum cofactor-binding catalytic site” (Scientific Reports, 2018).

Target: the molecule itself
Assay: SEC; gel filtration, Superdex 200 10/300, room temperature, 20 mM Tris pH 8.0, 150 mM NaCl, 5 mM β-mercaptoethanol; BL21-expressed and TP1000-expressed proteins

B1: Escherichia coli YiiM (natural protein)
chain: MRYPVDVYTGKIQAYPEGKPSAIAKIQVDGELMLTELGLEGDEQAEKKVHGGPDRALCHYPREHYLYWAREFPEQAELFVAPAFGENLSTDGLTESNVYMGDIFRWGEALIQVSQPRSPCYKLNYHFDISDIAQLMQNTGKVGWLYSVIAPGKVSADAPLELVSRVSDVTVQEAAAIAWHMPFDDDQYHRLLSAAGLSKSWTRTMQKRRLSGKIEDFSRRLWGK
notes: YiiM, a MOSC family protein of Escherichia coli; gene amplified by PCR from E. coli genomic DNA; calculated molecular weight 25.9 kDa; The BL21- and the TP1000-expressed protein are written as one molecule (both behaved alike); the crystal was grown from the TP1000-expressed protein; also called ecYiiM; ecYiiM^Pi (phosphate complex in the crystal); source: E. coli BL21 (DE3) (pET49b) and E. coli …
stoichiometry N: 2
